Molecular target: recombinant human DLL3 (ELISA coat) (human) (UniProt Q9NYJ7)
Test: ELISA, plate coated with recombinant human DLL3 0.5 µg/ml; commercial reagent mAb

Sequence of recombinant human DLL3 (ELISA coat) (human) (Q9NYJ7 27-492 limits assumed): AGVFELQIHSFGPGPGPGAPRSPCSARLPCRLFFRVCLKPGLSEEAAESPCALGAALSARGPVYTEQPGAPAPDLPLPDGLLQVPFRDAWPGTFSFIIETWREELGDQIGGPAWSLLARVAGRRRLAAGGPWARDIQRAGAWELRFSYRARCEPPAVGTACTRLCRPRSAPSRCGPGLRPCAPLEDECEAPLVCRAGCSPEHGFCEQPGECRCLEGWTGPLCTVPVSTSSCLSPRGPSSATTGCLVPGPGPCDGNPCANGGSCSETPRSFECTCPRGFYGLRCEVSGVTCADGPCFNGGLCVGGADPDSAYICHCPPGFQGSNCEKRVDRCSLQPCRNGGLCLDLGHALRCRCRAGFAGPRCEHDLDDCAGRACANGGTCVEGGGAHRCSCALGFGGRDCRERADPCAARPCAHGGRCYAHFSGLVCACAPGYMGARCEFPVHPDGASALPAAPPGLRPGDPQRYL

EC50: 0.1 nM
Substance: positive control antibody for DLL3 (R&D Systems, Minneapolis, Minn., Cat #MAB4315)

— US20210221894A1
